In paper PMC7898468, “TrkA-mediated endocytosis of p75-CTF prevents cholinergic neuron death upon γ-secretase inhibition” (Life Science Alliance, 2021):

Legend:
[1] = biological target: HA-p75-CTF (truncated p75NTR construct that mimics the endogenously generated C-terminal fragment), wild type (UniProt P07174); assay: non-reducing SDS-PAGE and Western blot; total membranes (and lysates) of HeLa cells transfected with p75-CTF constructs, 16 h with or without 10 uM compound E; sample buffer with 1% beta-mercaptoethanol keeps the C257 disulfide dimers; anti-p75NTR blot; shows only SDS-resistant disulfide dimers
[2] = biological target: endogenous p75-CTF of mouse dorsal root ganglia neurons (mouse (endogenous in dorsal root ganglia)); assay: non-reducing SDS-PAGE and Western blot; lysate of dorsal root ganglia from P2 mice, 24 h at 37 C with or without compound E (10 uM)
[3] = biological target: the molecule itself; assay: SDS-PAGE and Western blot with or without DTT; purified C101-p75-3xFLAG substrates, with or without DTT (20 mM), anti-FLAG blot

Molecule: HA-p75-CTF (truncated p75NTR construct that mimics the endogenously generated C-terminal fragment), wild type (from UniProt P07174 245-425) (domain or fragment)
- stoichiometry N [1]: 2

Molecule: endogenous p75-CTF of mouse dorsal root ganglia neurons (domain or fragment)
- stoichiometry N [2]: 2

B1: C101-p75-wt-3xFlag (domain or fragment, rat)
chain: MVTTVMGSSQPVVTRGTTDNLIPVYCSILAAVVVGLVAYIAFKRWNSCKQNKQGANSRPVNQTPPPEGEKLHSDSGISVDSQSLHDQQTHTQTASGQALKG
notes: rat p75NTR, transmembrane domain and juxtamembrane region; Forms DTT-sensitive disulfide dimers; also called p75-C101-wt; C101-wt; source: COS1, transiently transfected, purified (anti-FLAG M2 agarose); not shown: 3xFLAG, C-terminal, kept
- stoichiometry N [3]: 2
